Measured values published in patent publication US20250221941A1, “NEPHRON PROGENITOR EXOSOMES” (VANDERBILT UNIVERSITY, priority 2021, published 2025).

System: HK-2 cells
Assay: Sepsis-associated AKI model: cell-free hemoglobin-treated HK-2 cells, MTT, LDH, CC3, Ki-67, MDA
Format: cell-based
Protocol: Immortalized human cortical and proximal tubular epithelial (HK-2) cells were cultured in DMEM-F-12 with FBS [10% (wt/vol)] (Life Technologies, Carlsbad, CA), Insulin-Transferrin-Selenium (ITS) (Corning, Corning, NY), hydrocortisone (0.1 μM), and 1% Penicillin/Streptomycin. […] To induce the sepsis-associated AKI model, cells at confluence were exposed to 1 mg/ml purified cell-free hemoglobin (CFH) for 48 h. For all experiments, we used CFH purified from normal human blood by high pressure liquid chromatography (Pishchany, G., et al. J Vis Exp. 2013 Feb. 7 (72): 50072). After 48 h, the control or treated cells were harvested for immunostaining or assays. In both models, culture media was replaced after 48 h. For iNP-EV treatment, 10 μg of EVs was added to cells for the next 24 h.
The organoids were washed with PBS and then treated with MTT (3-(4,5-dimethylthiazol-2-yl)-2,5-diphenyltetrazolium bromide) reagent (Sigma-Aldrich) (1 mg/ml) for at least 60 min, leading to the purple formazan formation in living cells. The reagents were then removed and isopropanol was added to dissolve the insoluble formazan. The absorbance of the colored solution was measured using a microplate reader at 560 nm and 690 nm. Background absorbance at 690 nm was subtracted from absorbance at 560 nm and the O.D. values were plotted to measure cell viability.
LDH release from the cells was evaluated using CyQUANT™ LDH Cytotoxicity Assay Kit. Briefly, cell culture medium was collected for other purposes at 48 h after the treatment. The cells were treated with 10% Triton X-100 and incubated for 15 min before to obtain the maximum LDH release from the sample. Cell culture media was collected and 50 μl of each sample was transferred into a 96-well opaque-walled, non-transparent assay plate. The LDH detection reagent was prepared by combining the LDH detection enzyme mix and reductase substrate. Then 50 μl of detection reagent was added to each well. The wells were incubated for 60 min at room temperature. […] was recorded on a plate reader at 490 nm and the corresponding O.D. was plotted to quantify cell death.

[1] = HK-2, 1 mg/ml CFH 48 h vs control

“CFH: cell-free hemoglobin purified from normal human blood by high pressure liquid chromatography; induces sepsis-associated AKI model” was tested, and the “concentration of Malondialdehyde (MDA), lipid peroxidation” value (HK-2, 1 mg/ml CFH 48 h, without CFH ~3.5 μM, p<0.0001) was 22.5 µM, the “cleaved caspase-3 staining” value [1] was “increased” and the “proliferation by Ki-67 staining” value [1] was “not different between the groups”. The LDH release (HK-2, 1 mg/ml CFH 48 h vs control, p<0.005) was “higher LDH release” and the “viability (MTT assay)” value (HK-2, 1 mg/ml CFH 48 h vs control, p=0.0001) was “substantial decline in viability”.
